{
  "source": "the DeepSol protein solubility set",
  "test": "soluble on expression in E. coli; label from the status in PepcDB or PDB records",
  "data": [
    {"sequence": "MVNTIGFDREKYIEMQSQHIRERREALGGKLYLEMGGKLFDDMHASRVLPGFTPDNKIAMLDRIKDEVEILVCINAKDLERHKIRADLGISYEEDVLRLVDVFRDRGFLVEHVVLTQLENDNRLALAFIERLQRLGIKVSRHRVIPGYPTDMDRIVSDEGFGLNEYAETTRDLVVVTAPGPGSGKLATCLSQVYHEHKRGVAAGYAKFETFPIWNLPLEHPVNLAYEAATVDLNDANVIDHFHLAAYGEQTVNYNRDVEAFPLLKTLLERLMGESPYQSPTDMGVNMAGNCISDDAACRHASEQEIIRRYFKALVEEARTGKDSTQSDRAAVVMAKAGIKASQRVVVEPARQVEERTSLPGCAIELVDGSIITGATSDLLGCSSSMLLNALKHLAGIDDAIHLLSPESIEPIQTLKTVHLGSSNPRLHTDEVLIALSVSAATDSNAQKALDQLKNLRGCDVHTTTILGSVDEGIFRNLGVLVTSDPKFQKNKLYQKR", "values": [
      {"measurement": "soluble on expression in E. coli", "result": "not soluble"}
    ]},
    {"sequence": "SARGRKMSKPRAVEAAAAAAAVAATAPGPEMVERRGPGRPRTDGENVFTGQSKIYSYMSPNKCSGMRFPLQEENSVTHHEVKCQGKPLAGIYRKREEKRNAGNAVRSAMKSEEQKIKDARKGPLVPFPNQKSEAAEPPKTPPSSCDSTNAAIAKQALKKPIKGKQAPRKKAQGKTQQNRKLTDFYPVRRSSRKSKAELQSEERKRIDELIESGKEEGMKIDLIDGKGRGVIATKQFSRGDFVVEYHGDLIEITDAKKREALYAQDPSTGCYMYYFQYLSKTYCVDATRETNRLGRLINHSKCGNCQTKLHDIDGVRHLILIASRDIAAGEELLYDYGDRSKASIEAHPWLKH", "values": [
      {"measurement": "soluble on expression in E. coli", "result": "not soluble"}
    ]},
    {"sequence": "MSLRINLTSEKTLKEASTSMAPNVLKGNVIKNKAVASGKYVPFFGSSELSRFSAFHPSVLSEKYQRNYRPFLLGEAGTQSLTQAMVIHSMGDAIANKKAVFILSPQWFVKKGVPNDSFGAHYSQLQTYQWLANLTELTSGDQYLAQRLTKFPVVQKDKVLMETLANLQAGQLPQRSQRDYFIMNLRFLNREDELFSQIGMVSREPIVEKDMKQLPATYNFNELDQLAGKIAAKAINNNKFEISNGFYRQRIKPVLPKLAHSQKKWDYRFSPEYGDFQAALEQLAEKNVDVLFVIPPVNKRWSDYTGLSQDMLQQVARKLKYQLQEQGFTNIADFSTCSNERYFMADTIHLGWRGWLAVDRQVDEFMKQPASKKLAYQIDDRFYQTDWQQQNPLVLPQFEGHHHHHH", "values": [
      {"measurement": "soluble on expression in E. coli", "result": "soluble"}
    ]},
    {"sequence": "MRYLELAQLYQKLEKTTMKLIKTRLVADFLKKVPDDHLEFIPYLILGEVFPEWDERELGVGEKLLIKAVAMATGIDAKEIEESVKDTGDLGESIALAVKKKKQKSFFSQPLTIKRVYQTLVKVAETTGEGSQDKKVKYLADLFMDAEPLEAKYLARTILGTMRTGVAEGLLRDAIAMAFHVKVELVERAYMLTSDFGYVAKIAKLEGNEGLAKVQVQLGKPIKPMLAQQAASIRDALLEMGGEAEFEIKYDGARVQVHKDGSKIIVYSRRLENVTRAIPEIVEALKEAIIPEKAIVEGELVAIGENGRPLPFQYVLRRFRRKHNIEEMMEKIPLELNLFDVLYVDGQSLIDTKFIDRRRTLEEIIKQNEKIKVAENLITKKVEEAEAFYKRALEMGHEGLMAKRLDAVYEPGNRGKKWLKIKPTMENLDLVIIGAEWGEGRRAHLFGSFILGAYDPETGEFLEVGKVGSGFTDDDLVEFTKMLKPLIIKEEGKRVWLQPKVVIEVTYQEIQKSPKYRSGFALRFPRFVALRDDKGPEDADTIERIAQLYELQEKMKGKVES", "values": [
      {"measurement": "soluble on expression in E. coli", "result": "soluble"}
    ]},
    {"sequence": "TNAKASKRVYITFTGYDKKPSIDNLKKLDMSITSNPSKCTHLIAPRILRTSKFLCSIPYGPCVVTMDWINSCLKTHEIVDEEPYLLNDPEKELELGCTLESALKRARAQGPSLLEDYVVYLTSKTVAPENVPAVISIVKSNGGVCSTLNVYNKRLARHLEDGNVVLITCNEDSHIWTNFLDNASQNKTIFLQNYDWLIKTVLRQEIDVNDRIADEFARAV", "values": [
      {"measurement": "soluble on expression in E. coli", "result": "soluble"}
    ]},
    {"sequence": "TSRKLNDAANERLAAQQDLRNAATLIVRDARMAGGFGCFNMSEHPATDVIPDTTQQNSPFSLKRNGIDKLIPIAESSNINYQNFFQVGSALIFQYGIDD", "values": [
      {"measurement": "soluble on expression in E. coli", "result": "not soluble"}
    ]},
    {"sequence": "MAHHHHHHMSVVISTSLGSLLINLRFVDCPKASFNFLALCASSYYDGCRFHRLVPETFVLTGDPTGTGKGGESVFVHHQDIKQRYFEDEGMGNALHDRRGVVSMAHKGNKPDTNASQFFILFKPCPSLDSKHTAFGVVDFGWNDGESERTLKRVEELEADGSYNVLDVEARILSTTVLYNPFAEGHIKLNV", "values": [
      {"measurement": "soluble on expression in E. coli", "result": "not soluble"}
    ]},
    {"sequence": "MDCHKLRRLLKKEEGPKLDFKAEYDLSTESGKKELTKDVIAIANSRGGRGYIILGIEDKTKRVLGIEPKRYTEEQIQQIIYNRCDPPVPISVDFVGLDGKTVGVITVYRSSHKPHQMIQNGAFYIRRGSTTDIARRSEIANLFQENGLMTYETVILKNVGMEELDFGLIKDYFKTLNVFSDNPSELILEALGIIGQKSDTEEYHPTIGGLLLFGKNPSLYLPHVYVKVVYNGEARLFFGNILKMLDDVSDYMRSIIKVEGYPFNALEEVIANALVHRDYLDVSKGIVITVTDKNIEISNPGALIAGNSVYSFSREINPDRRNPWLYQRLLTLDPKKRFMKSGVGLKRVKKSFTGIGPVKFINIGSQNLFKVLLPIGKKQESTSDTSGLF", "values": [
      {"measurement": "soluble on expression in E. coli", "result": "soluble"}
    ]},
    {"sequence": "MAHHHHHHMGGDVTFSLTKTRDTFADWFDAIMDAAELVDRRYPVKGCVVFRPYGFFMENAIMRLCEEEYAKVGISQILFPTVIPESFLKKESDHIKGFEAECFWVEKGGLQPLEERLALRPTSETAIYSMFSKWVRSYKDLPLKIHQTCTIFRHETKNTKPLIRVREIHWNEAHCCHATAEDAVSQLSDYWKVIDTIFSDELCFKGQKLRRVCWDRFPGADYSEVSDVVMPCGRVLQTAGIHNLGQRFSSTFDILYANKANESVHPYLTCAGISTRVLACALSIHGDSGGLVLPPLIAPIHVVIIPIGCGKKNNQESDQQVLGKVNEIADTLKSKLGLRVSIDDDFSKSMGDKLYYYELKGVPLRIEVGQRDLANGQCIVVPRDVGKDQKRVIPITEVMKVSSHTTENHELVVKNVIKDELDAYKARLKEKAFAFHNSMVTNCKSFDEIVACIENKGGLARFPFYTTEADGEVWDKKLKDACSAEIRGHNPDENVLPGEVCALSGKPAVCYMYCAKSY", "values": [
      {"measurement": "soluble on expression in E. coli", "result": "soluble"}
    ]},
    {"sequence": "SLQTNKASTGLKTDQSFNNSLSESVKLKEIADIYPTNTNFLTGIGIVAGLAGKGDSIKQKDLIIKILEENNIINEIGSNNIESKNIALVNVSLQVKGNTIKGSKHKACVASILDSKDLTNGILLKTNLKNKEGEIIAIASGITQPNNKLKGSGYTIDSVIINENQNINHSYNIILKKGNYTLINRIHKILTSKKINNKIKSDSTIEIEAKNISLLEEIENIKIETNPKILIDKKNGIILASENAKIGTFTFSIEKDNQNIFLSKNNKTTIQVNSMKLNEFILKNSNNLSNKELIQIIQAAQKINKLNGELILEEIDGNQN", "values": [
      {"measurement": "soluble on expression in E. coli", "result": "soluble"}
    ]},
    {"sequence": "MIPLCREHNKTCRVKVNYHWRVYNEDINKNAVLELSCQCQVLDQLRKTFVELGSSTIHSAADFEFSCITKDGPVVLSSGYEIYNNIRPELSFYHSQLPQLFLHVRILDVSVIAKLDDLGRTVNECKATMKSDKAWRVMKDTEIAEGQLSLQELLDKQQLEIKSLQKDISEMKLENQCRKKEDKNSFKNKEVHEASCDKCQDLIIGHRFKCAICYNYDLCETCEAAGVHAQHALIRLVSENTLFPEHLIVKNPEEVKDQNGQVQAIASSRDRAIQVPLRRLGITPQAIATKNNVSRYLNAQSDRNIIEDPWYAQHMSSRKPQTYERMHPKLKDTTDGKKVQKVSFRDRFYKKAESSLDKHEKQLRFDLSASRQEFIREKEKFRVEKETLMKQKEQIEEMMKQETINFETNRAFFSDRFEPIFNKVKDGKKSEDDTTRKVEFEVETAESNYPGSIFSDEDSLSDLAEILKDIEEYECSSESSDDQEKDDFDVVEEEAKQS", "values": [
      {"measurement": "soluble on expression in E. coli", "result": "not soluble"}
    ]},
    {"sequence": "MGSDKIHHHHHHMYLKGDFHIHTNASDGKYTPEKVLELAKTAGINILAITDHDTTSSVKKAIAVGNELGIKVLPGIELSTLKNGESIHILGYFRDISYENKDFQNFLTEMQNYRVWRAKKIVENLDTYFNIKLDYASILKEASNVIARPHIARAILAKGYNYTYEYIFNNILNKESPAYIPNKKVSVEEGIKLLKAANAVVVLAHPVLIKKTPIEDFLKLDFDGIEAIYPMNSESDTERFLSLAKIYNKLVTAGSDFHTDDSSDTKHGRIGEIYLDENNIDILLSK", "values": [
      {"measurement": "soluble on expression in E. coli", "result": "not soluble"}
    ]},
    {"sequence": "RRVVVTGLGMVTPLGRGVETTWRRLIDGECGIRGLTLDDLKMKSFDEETKLYTFDQLSSKVAAFVPYGSNPGEFDEALWLNSKAVANFIGYAVCAADEALRDAEWLPTEEEEKERTGVSIGGGIGSICDIVEAAQLICEKRLRRLSPFFIPKILVNMASGHVSMKYGFQGPNHAAVTACATGAHSIGDATRMIQFGDADVMVAGGTESSIDALSVAGFSRSRALSTKFNSSPQEASRPFDCDRDGFVIGEGSGVIVLEEYEHAKRRGAKIYAELCGYGMSGDAHHITQPPEDGKGAVLAMTRALRQSGLCPNQIDYVNAHATSTPIGDAVEARAIKTVFSEHATSGTLAFSSTKGATGHLLGAAGAVEAIFSILAIHHGVAPMTLNVKNPDPIFDKRFMPLTTSKKMLVRTAMSNSFGFGGTNASLLFASI", "values": [
      {"measurement": "soluble on expression in E. coli", "result": "soluble"}
    ]},
    {"sequence": "MVILLQFYKEENFKKTEIGEIPEDWEVRELKDILEVIRNGLTAKQNKDKIGYPITRIETISDSKIDITKLGYVEDIKQEDIAKYRLIIGDILFSHINSEEHIGKVAIYEGKPEFLLHGMNLLLLRPNKNKIEPYYLLYLLRHFKQKNIFKYIAKRAVNQSSINQTQLKHLKIPLPPLEEQKQIAKILSDFDNLIGTINKQIEVLNKAKKGMMKKLFTKGVFEHKSFKKSEIGEIPEDWEVVELGNEKYFKIIMGQSPPSSSYNKEGEGVPFLQGKAEFGNIYPNPVLYTNKPLKVVDDEDILISVRAPVGDVNIAPFKLCIGRGLAGIKSNKEKVDNFFVFYYLSYIKPKIEYLGGGAVFKAITKKDLESIKIPLPPLEEQKAIAKRLKAIDDLIEIKRKEKEQIEKAKKKIMNLLLTGKIRVKT", "values": [
      {"measurement": "soluble on expression in E. coli", "result": "soluble"}
    ]},
    {"sequence": "MGSDKIHHHHHHMVVDGPRDPRMNMAIDEAILRVGAAPTLRIYMWLPGGLTLGRRQSVEDVNLAEAEKRGYVLVRRPTGGAALLHPWEREITYSLVLDSRHPYYSLDVAESAATIAGGVALALEELGIATRVGGYTPPPGVIGGLCYVRPGSSDVVVAGRKVSGSAQRRIGGRLLQHGTLLLRFDPEEWLSIIPVKGAGPSDLASRIAGIEDLAGRSYSFSEVADALVKGFSKALGLEPEPSGLEGREVEEALRLYRKKYSSPRWNLEGDEP", "values": [
      {"measurement": "soluble on expression in E. coli", "result": "not soluble"}
    ]},
    {"sequence": "MRSPDSDRPVHRMRALREAVSDADSHSRRGGRMIAREWQFALPEKKHKKKYFGNLKAEVIDAGLCCHCAACASICPVNGITAGDAPIDFPNWVKECVDCGACIKVCPRWEYTPKNGLGEYIEVVAARSKRFVGQDGAMVTEFTASALEMGIIERAIFVARDSNWRTRVVTIKTPEQLYDRKITGTKYSYADVLPALKEAVLKSEAVGFVGTPCMVSAVRKMQQAFKKFERVKLAIGLFCTENFYHHDLYKFLLEKANADLRNAVKTDIKKGKFIVEMKDGSKVRIPVKDFEEIIPSGCKVCQDFAAVESDVSVGSVGSPNRFSTVMVRTEVAKQILDYIREKDYAEFGEAKLDIVQKLCDHKMKIHPWPPKKKEEKSEELEHHHHHH", "values": [
      {"measurement": "soluble on expression in E. coli", "result": "soluble"}
    ]},
    {"sequence": "MGSDKIHHHHHHMENKLLVFLEAIQQHNSMTKAAQSLFISQPYISRTIKSAETHFGTPLIDRGHHPLELTYAGERLLTYLQSDARLHQRMNTELKEISQNKYQSMTIGITPPMANAWFSQTLPAFYQRFPNIRTKILEITTSKAETLLASHQLDFFIGKTIHQTNVKTIPLQTISLSLVIPKTAGIYQSNQFWRPFTPTILTGMTGEPVIRAVGEARFQELVDHYFADKGIQTIPLIEVDNSRFALSLTLQGLGSIVLATAMLARLATEPAKYPINAFKLPTSELSLDFSIAYLPSHVLAKPIAYLVEQACQTFNPAIDF", "values": [
      {"measurement": "soluble on expression in E. coli", "result": "not soluble"}
    ]}
  ]
}
